Positions count from the first letter of the chain named. In names and notes the source's numbering stands.
What was measured:
[1] = target: Factor X, P00742
[2] = target: plasma purified human AT-III (Molecular Innovations), in complex with low molecular weight heparin
[3] = target: Factor X (FX), P00742
[4] = target: antithrombin III (plasma purified human AT-III), used as the AT-III/unfractionated heparin complex; assay: K0.5 ratio to Catalyst Biosciences WT FIXa, AT-III/UFH inhibition assay (from lower-limit K0.5)
[5] = target: T1, Antithrombin III (plasma purified human AT-III, Molecular Innovations); assay: AT-III/UFH inhibition, standard assay (35 nM-0 nM AT-III); 999 nM is the assigned lower limit for less than 10% inhibition
[6] = target: T1, Antithrombin III (plasma purified human …); assay: same assay; ratio of the lower-limit K0.5 to recombinant wild-type FIXa (Catalyst Biosciences WT)
[7] = target: plasma purified human AT-III (antithrombin III), in complex with full-length unfractionated heparin (UFH); assay: ratio of K0.5 of the variant to K0.5 of Catalyst Biosciences WT FIXa, AT-III/UFH inhibition
[8] = target: T2, plasma purified human antithrombin III (AT-III), in complex with unfractionated heparin; assay: K0.5 of variant over K0.5 of Catalyst Biosciences WT FIXa; AT-III/UFH inhibition assay; from lower limit K0.5
[9] = target: T2, plasma purified human antithrombin III …; assay: K0.5 of variant over K0.5 of Catalyst Biosciences WT FIXa; AT-III/UFH inhibition assay
[10] = target: plasma purified human AT-III (antithrombin III); assay: same assay; ratio to K0.5 of Catalyst Biosciences WT FIXa
[11] = target: plasma purified human AT-III (antithrombin III); assay: same assay; ratio to K0.5 of Catalyst Biosciences WT FIXa; from lower limit value
[12] = target: T1, Antithrombin III (plasma purified human …); assay: AT-III/UFH inhibition, expanded sensitivity assay (1000 nM-0 nM and 5000-0 nM AT-III); assigned lower limit for less than 10% inhibition
[13] = target: plasma purified human antithrombin III (AT-III), in complex with unfractionated heparin (UFH); assay: ratio of K0.5 for AT-III/UFH inhibition, variant over Catalyst Biosciences WT FIXa; calculated from the lower-limit K0.5

Chain of Factor X (FX), P00742 (P00742 whole entry, looked up): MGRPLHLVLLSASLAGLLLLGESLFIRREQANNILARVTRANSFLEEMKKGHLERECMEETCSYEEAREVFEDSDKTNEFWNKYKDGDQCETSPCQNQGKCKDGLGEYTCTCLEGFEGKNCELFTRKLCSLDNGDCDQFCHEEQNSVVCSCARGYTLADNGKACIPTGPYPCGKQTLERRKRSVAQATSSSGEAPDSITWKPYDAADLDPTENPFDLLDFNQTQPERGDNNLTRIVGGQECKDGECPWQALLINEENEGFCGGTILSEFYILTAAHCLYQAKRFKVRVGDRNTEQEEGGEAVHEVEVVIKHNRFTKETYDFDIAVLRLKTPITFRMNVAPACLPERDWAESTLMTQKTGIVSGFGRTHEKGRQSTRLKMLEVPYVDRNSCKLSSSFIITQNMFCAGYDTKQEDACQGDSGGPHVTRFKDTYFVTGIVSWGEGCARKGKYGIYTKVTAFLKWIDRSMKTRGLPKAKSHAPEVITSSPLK
Chain of Factor X, P00742 (P00742 whole entry, looked up): as above

B1: FIXa-K293A/R338A/R403A (protein)
chain 1: YNSGKLEEFVQGNLERECMEEKCSFEEAREVFENTERTTEFWKQYVDGDQCESNPCLNGGSCKDDINSYECWCPFGFEGKNCELDVTCNIKNGRCEQFCKNSADNKVVCSCTEGYRLAENQKSCEPAVPFPCGRVSVSQTSKLTR
chain 2: VVGGEDAKPGQFPWQVVLNGKVDAFCGGSIVNEKWIVTAAHCVETGVKITVVAGEHNIEETEHTEQKRNVIRIIPHHNYNAAINKYNHDIALLELDEPLVLNSYVTPICIADAEYTNIFLKFGSGYVSGWGRVFHKGRSALVLQYLRVPLVDRATCLASTKFTIYNNMFCAGFHEGGRDSCQGDSGGPHVTEVEGTSFLTGIISWGEECAMKGKYGIYTKVSAYVNWIKEKTKLT
**Q.** With B1 as the protein, how does the KM [1] read?
**A.** Its KM is 0.0654 µM.

**Q.** What about the K0.5 [2] of the same protein?
**A.** The K0.5 was 497 nM.

**Q.** What about the K0.5-mut/K0.5-wt [2] of the same protein?
**A.** The K0.5-mut/K0.5-wt was 16.9 fold.

**Q.** What about the “% of WT kcat/KM” value [3] of the same protein?
**A.** The value was 55%.

**Q.** What about the kcat [3] of the same protein?
**A.** The kcat was 1.6 s⁻¹.

**Q.** What about the kcat/KM [3] of the same protein?
**A.** Its kcat/KM is 2.5e+07 M⁻¹ s⁻¹.

**Q.** What about the K0.5-mut/K0.5-wt [4] of the same protein?
**A.** The K0.5-mut/K0.5-wt was greater than 51.7 fold.

**Q.** What about the K0.5 [5] of the same protein?
**A.** Its K0.5 is greater than 999 nM.

**Q.** And the K0.5-mut/K0.5-wt [6]?
**A.** Its K0.5-mut/K0.5-wt is greater than 51.7.

B2: FIXa variant K247N/N249S/N260S/R318Y/R338E/R403E/E410N (mature FIX numbering) (protein)
chain 1: B1 chain 1
chain 2: B1 chain 2 with K67N, N69S, N80S, A113K, R138Y, A158E, A223E, E230N
**Q.** B2 was tested. Which K0.5-mut/K0.5-wt [7] did it give?
**A.** The K0.5-mut/K0.5-wt was 288.

B3: FIXa A103N/N105S/Y155F/R318Y/R338E/R403E/E410N (protein)
chain 1: B1 chain 1 with A103N, N105S
chain 2: B1 chain 2 with A113K, R138Y, A158E, A223E, E230N
**Q.** Which results are given for B3?
**A.** KM [3]: 0.0507 µM; K0.5-mut/K0.5-wt [8]: > 517

B4: FIXa D104N/K106S/R318Y/R338E/R403E/E410N (protein)
chain 1: B1 chain 1 with D104N, K106S
chain 2: B1 chain 2 with A113K, R138Y, A158E, A223E, E230N
**Q.** With B4 as the protein, how does the KM [3] read?
**A.** Its KM is 0.0385 µM.

**Q.** What about the K0.5-mut/K0.5-wt [8] of the same protein?
**A.** The K0.5-mut/K0.5-wt was greater than 517.

B5: FIXa D104N/K106S/Y155F/R318Y/R338E/R403E/E410N (protein)
chain 1: B1 chain 1 with D104N, K106S
chain 2: B1 chain 2 with A113K, R138Y, A158E, A223E, E230N
**Q.** Which results are given for B5?
**A.** KM [3]: 0.048 µM; K0.5-mut/K0.5-wt [8]: > 517

B6: FIXa A103N/N105S/R318Y/R338E/R403E/E410N (protein)
chain 1: B1 chain 1 with A103N, N105S
chain 2: B1 chain 2 with A113K, R138Y, A158E, A223E, E230N
**Q.** Which KM [3] does the source give for B6 here?
**A.** Its KM is 0.0447 µM.

**Q.** And the K0.5-mut/K0.5-wt [9]?
**A.** The K0.5-mut/K0.5-wt was 475.

B7: FIXa-D203N/F205T/R318Y/E410N (protein)
chain 1: B1 chain 1
chain 2: B1 chain 2 with D23N, F25T, A113K, R138Y, A158R, A223R, E230N
**Q.** For B7, which KM [1] is on record?
**A.** The KM was 0.0457 µM.

**Q.** And the kcat [3]?
**A.** The kcat was 1.6 s⁻¹.

**Q.** What about the K0.5-mut/K0.5-wt [10] of the same protein?
**A.** Its K0.5-mut/K0.5-wt is 66.2.

B8: FIXa-A103N/N105S/R318Y/R338E/R403E/E410N (protein)
chain 1: B1 chain 1 with A103N, N105S
chain 2: B1 chain 2 with A113K, R138Y, A158E, A223E, E230N
**Q.** For B8, which KM [1] is on record?
**A.** Its KM is 0.0447 µM.

**Q.** And the kcat [3]?
**A.** Its kcat is 5.4 s⁻¹.

**Q.** And the K0.5-mut/K0.5-wt [10]?
**A.** Its K0.5-mut/K0.5-wt is 475.

B9: FIXa-D104N/K106S/Y155F/R318Y/R338E/R403E/E410N (protein)
chain 1: B1 chain 1 with D104N, K106S
chain 2: B1 chain 2 with A113K, R138Y, A158E, A223E, E230N
**Q.** How did the KM [1] turn out when B9 was run?
**A.** Its KM is 0.048 µM.

**Q.** What about the kcat [3] of the same protein?
**A.** Its kcat is 8.5 s⁻¹.

**Q.** What about the K0.5-mut/K0.5-wt [11] of the same protein?
**A.** Its K0.5-mut/K0.5-wt is greater than 517.

B10: FIXa-A103N/N105S/Y155F/R318Y/R338E/R403E/E410N (protein)
chain 1: B1 chain 1 with A103N, N105S
chain 2: B1 chain 2 with A113K, R138Y, A158E, A223E, E230N
**Q.** How did the KM [1] turn out when B10 was run?
**A.** Its KM is 0.0507 µM.

**Q.** And the kcat [3]?
**A.** The kcat was 6.4 s⁻¹.

**Q.** What about the K0.5-mut/K0.5-wt [11] of the same protein?
**A.** Its K0.5-mut/K0.5-wt is greater than 517.

B11: FIXa D203N/F205T/R318Y/E410N (protein)
chain 1: B1 chain 1
chain 2: B1 chain 2 with D23N, F25T, A113K, R138Y, A158R, A223R, E230N
**Q.** Which KM [3] does the source give for B11 here?
**A.** Its KM is 0.0457 µM.

**Q.** What about the K0.5-mut/K0.5-wt [9] of the same protein?
**A.** The K0.5-mut/K0.5-wt was 66.2.

B12: FIXa-R318Y/R338E/R403E (protein)
chain 1: B1 chain 1
chain 2: B1 chain 2 with A113K, R138Y, A158E, A223E
**Q.** Which KM [1] does the source give for B12 here?
**A.** The KM was 0.0537 µM.

**Q.** What about the K0.5-mut/K0.5-wt [4] of the same protein?
**A.** Its K0.5-mut/K0.5-wt is greater than 517 fold.

**Q.** And the K0.5-mut/K0.5-wt [6]?
**A.** Its K0.5-mut/K0.5-wt is greater than 517.

**Q.** And the K0.5 [12]?
**A.** The K0.5 was greater than 10 µM.

B13: FIXa-Y155F/R318Y/R338E/R403E/E410N (protein)
chain 1: B1 chain 1
chain 2: B1 chain 2 with A113K, R138Y, A158E, A223E, E230N
**Q.** Which KM [1] does the source give for B13 here?
**A.** Its KM is 0.0304 µM.

**Q.** What about the kcat [3] of the same protein?
**A.** The kcat was 5.3 s⁻¹.

**Q.** And the K0.5-mut/K0.5-wt [11]?
**A.** The K0.5-mut/K0.5-wt was greater than 517.

B14: FIXa-D104N/K106S/R318Y/R338E/R403E/E410N (protein)
chain 1: B1 chain 1 with D104N, K106S
chain 2: B1 chain 2 with A113K, R138Y, A158E, A223E, E230N
**Q.** Which KM [1] does the source give for B14 here?
**A.** The KM was 0.0385 µM.

**Q.** And the kcat [3]?
**A.** Its kcat is 5.7 s⁻¹.

**Q.** What about the K0.5-mut/K0.5-wt [11] of the same protein?
**A.** The K0.5-mut/K0.5-wt was greater than 517.

B15: FIXa Y155F/R318Y/R338E/R403E/E410N (protein)
chain 1: B1 chain 1
chain 2: B1 chain 2 with A113K, R138Y, A158E, A223E, E230N
**Q.** What does the source list for B15?
**A.** KM [3]: 0.0304 µM; K0.5-mut/K0.5-wt [8]: > 517

B16: FIXa-K293E/R338E/R403E (protein)
chain 1: B1 chain 1
chain 2: B1 chain 2 with A113E, A158E, A223E
**Q.** With B16 as the protein, how does the KM [1] read?
**A.** The KM was 0.05 µM.

**Q.** And the K0.5 [2]?
**A.** The K0.5 was 418 nM.

**Q.** What about the K0.5-mut/K0.5-wt [2] of the same protein?
**A.** Its K0.5-mut/K0.5-wt is 14.2 fold.

**Q.** What about the “% of WT kcat/KM” value [3] of the same protein?
**A.** The value was 37%.

**Q.** What about the kcat [3] of the same protein?
**A.** Its kcat is 0.8 s⁻¹.

**Q.** What about the kcat/KM [3] of the same protein?
**A.** The kcat/KM was 1.7e+07 M⁻¹ s⁻¹.

**Q.** What about the K0.5-mut/K0.5-wt [4] of the same protein?
**A.** Its K0.5-mut/K0.5-wt is greater than 51.7 fold.

**Q.** And the K0.5 [5]?
**A.** Its K0.5 is greater than 999 nM.

**Q.** What about the K0.5-mut/K0.5-wt [6] of the same protein?
**A.** Its K0.5-mut/K0.5-wt is greater than 51.7.

B17: FIXa-R318Y/R338E/T343R/R403E/E410N (protein)
chain 1: B1 chain 1
chain 2: B1 chain 2 with A113K, R138Y, A158E, T163R, A223E, E230N
**Q.** With B17 as the protein, how does the “% of WT kcat/KM” value [1] read?
**A.** The value was 1217%.

**Q.** And the kcat [1]?
**A.** Its kcat is 11.8 s⁻¹.

**Q.** What about the kcat/KM [1] of the same protein?
**A.** The kcat/KM was 5.4e+08 M⁻¹ s⁻¹.

**Q.** And the KM [3]?
**A.** Its KM is 0.0223 µM.

**Q.** What about the “catalytic activity (kcat/KM) for activation of FX” value [3] of the same protein?
**A.** The value was “displayed some of the greatest increases in catalytic activity”.

**Q.** What about the kcat of FX activation by FIXa (Xase complex with FVIIIa, PC/PS vesicles, Ca2+) [3] of the same protein?
**A.** The kcat of FX activation by FIXa (Xase complex with FVIIIa, PC/PS vesicles, Ca2+) was 9.7 s⁻¹.

**Q.** What about the K0.5-mut/K0.5-wt [13] of the same protein?
**A.** Its K0.5-mut/K0.5-wt is greater than 517 fold.

Reference: patent US20210238260
